B1: F1*; the commonest letter at each place (parent)
chain: GAGACCGCAACTGAAAAGTTGTTATCACTTGTCGTAAGACACTTTGGATGGGTTGAAGTTCTGCACGTAGAAGCAAAAGGC

Variants of: B1
Assay: fraction ligated after 30 min (ligated reads / total reads); higher = more ligase activity
Settings: with F1*sub RNA substrate (template-directed ligation), 42 °C
Method: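 Chip-synthesised pool of F1* ligase ribozyme variants (all single and double substitutions, single, double and triple deletions in the catalytic core and GAA bulge, plus designed variants) was transcribed with T7 and reacted as a pool with excess substrate F1*sub for 30 min at 42 C in 50 mM EPPS pH 8.5, 25 mM MgCl2. Ligated and unligated bands were separated by PAGE, barcoded by RT and deep sequenced; fraction ligated = ligated reads / total reads per variant, relative activity = FL / FL of wild type (0.826). Sequences are the DNA template of the ribozyme.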

First: GAGACCGCAACTGAAAAGTTGTTATGACTTGACGTAAGACACTTTGGATGGGTTGAAGTTCTGCACGTAGAAGCAAAAGGC [C26G T32A]
Second: GAGACCGCAACTGAAAAGTTGTTATGACTTGCCGTAAGACACTTTGGATGGGTTGAAGTTCTGCACGTAGAAGCAAAAGGC [C26G T32C]
The fraction ligated of the first is lower: 0.238 for the first, 0.245 for the second.

First: GAGACCGCAACTGAAAAGTTGTTATGACTTGGCGTAAGACACTTTGGATGGGTTGAAGTTCTGCACGTAGAAGCAAAAGGC [C26G T32G]
Second: GAGACCGCAACTGAAAAGTTGTTATTACTTGTCGTAAGACACTTTGGATGGGTTGAAGTTCTGCACGTAGAAGCAAAAGGC [C26T]
The fraction ligated of the first is lower: 0.125 for the first, 0.836 for the second.

Going from GAGACCGCAACTGAAAAGTTGTTATGACTTGTCGTAAGACACTTTAGATGGGTTGAAGTTCTGCACGTAGAAGCAAAAGGC [C26G G46A] to GAGACCGCAACTGAAAAGTTGTTATGACTTGTCGTAAGACACTTTCGATGGGTTGAAGTTCTGCACGTAGAAGCAAAAGGC [C26G G46C], the fraction ligated falls from 0.785 to 0.719.

Compared with GAGACCGCAACTGAAAAGTTGTTATGACTTGTCGTAAGACACTTTTGATGGGTTGAAGTTCTGCACGTAGAAGCAAAAGGC [C26G G46T], GAGACCGCAACTGAAAAGTTGTTATGAGTTGTCGTAAGACACTTTGGATGGGTTGAAGTTCTGCACGTAGAAGCAAAAGGC [C26G C28G] is higher in fraction ligated: 0.417 for the first, 0.611 for the second.

First: GAGACCGCAACTGAAAAGTTGTTATGATTTGTCGTAAGACACTTTGGATGGGTTGAAGTTCTGCACGTAGAAGCAAAAGGC [C26G C28T]
Second: GAGACCGCAACTGAAAAGTTGTTATGACTCGTCGTAAGACACTTTGGATGGGTTGAAGTTCTGCACGTAGAAGCAAAAGGC [C26G T30C]
The fraction ligated of the first is lower: 0.558 for the first, 0.676 for the second.

First: GAGACCGCAACTGAAAAGTTGTTATGACTGGTCGTAAGACACTTTGGATGGGTTGAAGTTCTGCACGTAGAAGCAAAAGGC [C26G T30G]
Second: GAGACCGCAACTGAAAAGTTGTTATGACTAGTCGTAAGACACTTTGGATGGGTTGAAGTTCTGCACGTAGAAGCAAAAGGC [C26G T30A]
The fraction ligated of the first is lower: 0.757 for the first, 0.8 for the second.

Compared with GAGACCGCAACTGAAAAGTTGTTATGACTTGTCGTAAGACACTTTGGATGGGTTTAAGTTCTGCACGTAGAAGCAAAAGGC [C26G G55T], GAGACCGCAACTGAAAAGTTGTTATGACTTGTCGTAAGACACTTTGGATGGGTTCAAGTTCTGCACGTAGAAGCAAAAGGC [C26G G55C] is lower in fraction ligated: 0.0355 for the first, 0.00657 for the second.

Compared with GAGACCGCAACTGAAAAGTTGTTATGACTTGTCGTAAGACACTTTGGATGGGTTAAAGTTCTGCACGTAGAAGCAAAAGGC [C26G G55A], GAGACCGCAACTGAAAAGTTGTTATGACTTGTGGTAAGACACTTTGGATGGGTTGAAGTTCTGCACGTAGAAGCAAAAGGC [C26G C33G] is higher in fraction ligated: 0.169 for the first, 0.754 for the second.

Compared with GAGACCGCAACTGAAAAGTTGTTATGACTTGTTGTAAGACACTTTGGATGGGTTGAAGTTCTGCACGTAGAAGCAAAAGGC [C26G C33T], GAGACCGCAACTGAAAAGTTGTTATGACTTGTAGTAAGACACTTTGGATGGGTTGAAGTTCTGCACGTAGAAGCAAAAGGC [C26G C33A] is lower in fraction ligated: 0.738 for the first, 0.473 for the second.

First: GAGACCGCAACTGAAAAGTTGTTATGACTTGTCGTAAGACACTTTGGAAGGGTTGAAGTTCTGCACGTAGAAGCAAAAGGC [C26G T49A]
Second: GAGACCGCAACTGAAAAGTTGTTATGACTTGTCGTAAGACACTTTGGAGGGGTTGAAGTTCTGCACGTAGAAGCAAAAGGC [C26G T49G]
The fraction ligated of the first is lower: 0.188 for the first, 0.371 for the second.

First: GAGACCGCAACTGAAAAGTTGTTATGACTTGTCGTAAGACACTTTGGACGGGTTGAAGTTCTGCACGTAGAAGCAAAAGGC [C26G T49C]
Second: GAGACCGCAACTGAAAAGTTGTTATGACTTGTCGTAAGATACTTTGGATGGGTTGAAGTTCTGCACGTAGAAGCAAAAGGC [C26G C40T]
The fraction ligated of the first is lower: 0.0764 for the first, 0.678 for the second.

Compared with GAGACCGCAACTGAAAAGTTGTTATGACTTGTCGTAAGAAACTTTGGATGGGTTGAAGTTCTGCACGTAGAAGCAAAAGGC [C26G C40A], GAGACCGCAACTGAAAAGTTGTTATGACTTGTCGTAAGAGACTTTGGATGGGTTGAAGTTCTGCACGTAGAAGCAAAAGGC [C26G C40G] is higher in fraction ligated: 0.248 for the first, 0.793 for the second.

GAGACCGCAACTGAAAAGTTGTTATTACTTGTCGTACGACACTTTGGATGGGTTGAAGTTCTGCACGTAGAAGCAAAAGGC [C26T A37C] and GAGACCGCAACTGAAAAGTTGTTATTACTTGTCGTAGGACACTTTGGATGGGTTGAAGTTCTGCACGTAGAAGCAAAAGGC [C26T A37G] are the same in fraction ligated: 0.841 for the first, 0.841 for the second.

Compared with GAGACCGCAACTGAAAAGTTGTTATTACTTGTCGTATGACACTTTGGATGGGTTGAAGTTCTGCACGTAGAAGCAAAAGGC [C26T A37T], GAGACCGCAACTGAAAAGTTGTTATGACTTCTCGTAAGACACTTTGGATGGGTTGAAGTTCTGCACGTAGAAGCAAAAGGC [C26G G31C] is lower in fraction ligated: 0.853 for the first, 0.176 for the second.

Going from GAGACCGCAACTGAAAAGTTGTTATGACTTATCGTAAGACACTTTGGATGGGTTGAAGTTCTGCACGTAGAAGCAAAAGGC [C26G G31A] to GAGACCGCAACTGAAAAGTTGTTATGACTTTTCGTAAGACACTTTGGATGGGTTGAAGTTCTGCACGTAGAAGCAAAAGGC [C26G G31T], the fraction ligated falls from 0.165 to 0.0375.

First: GAGACCGCAACTGAAAAGTTGTTATGACTTGTCGTAAGACACTGTGGATGGGTTGAAGTTCTGCACGTAGAAGCAAAAGGC [C26G T44G]
Second: GAGACCGCAACTGAAAAGTTGTTATGACTTGTCGTAAGACACTCTGGATGGGTTGAAGTTCTGCACGTAGAAGCAAAAGGC [C26G T44C]
The fraction ligated of the first is higher: 0.776 for the first, 0.731 for the second.

Compared with GAGACCGCAACTGAAAAGTTGTTATGACTTGTCGTAAGACACTATGGATGGGTTGAAGTTCTGCACGTAGAAGCAAAAGGC [C26G T44A], GAGACCGCAACTGAAAAGTTGTTATGACTTGTCTTAAGACACTTTGGATGGGTTGAAGTTCTGCACGTAGAAGCAAAAGGC [C26G G34T] is lower in fraction ligated: 0.781 for the first, 0.718 for the second.
